The labels stand for the following.
B1: APP-Fc (APP695 extracellular domain, residues 1-596, fused to the constant region of human IgG) (Fc fusion, UniProt P12023-2 18-596, looked up)
chain: LEVPTDGNAGLLAEPQIAMFCGKLNMHMNVQNGKWESDPSGTKTCIGTKEGILQYCQEVYPELQITNVVEANQPVTIQNWCKRGRKQCKTHTHIVIPYRCLVGEFVSDALLVPDKCKFLHQERMDVCETHLHWHTVAKETCSEKSTNLHDYGMLLPCGIDKFRGVEFVCCPLAEESDSVDSADAEEDDSDVWWGGADTDYADGGEDKVVEVAEEEEVADVEEEEADDDEDVEDGDEVEEEAEEPYEEATERTTSTATTTTTTTESVEEVVRVPTTAASTPDAVDKYLETPGDENEHAHFQKAKERLEAKHRERMSQVMREWEEAERQAKNLPKADKKAVIQHFQEKVESLEQEAANERQQLVETHMARVEAMLNDRRRLALENYITALQAVPPRPHHVFNMLKKYVRAEQKDRQHTLKHFEHVRMVDPKKAAQIRSQVMTHLRVIYERMNQSLSLLYNVPAVAEEIQDEVDELLQKEQNYSDDVLANMISEPRISYGNDALMPSLTETKTTVELLPVNGEFSLDDLQPWHPFGVDSVPANTENEVEPVDARPAADRGLTTRPGSGLTNIKTEEISEVKM

The target of assay [1] is LRP4 (endogenous, mouse embryonic muscle) (mouse (endogenous in embryonic muscle), UniProt Q8VI56 21-1905). Kind of assay: cell-based or functional assay.
LRP4 (endogenous, mouse embryonic muscle), sequence (Q8VI56 21-1905): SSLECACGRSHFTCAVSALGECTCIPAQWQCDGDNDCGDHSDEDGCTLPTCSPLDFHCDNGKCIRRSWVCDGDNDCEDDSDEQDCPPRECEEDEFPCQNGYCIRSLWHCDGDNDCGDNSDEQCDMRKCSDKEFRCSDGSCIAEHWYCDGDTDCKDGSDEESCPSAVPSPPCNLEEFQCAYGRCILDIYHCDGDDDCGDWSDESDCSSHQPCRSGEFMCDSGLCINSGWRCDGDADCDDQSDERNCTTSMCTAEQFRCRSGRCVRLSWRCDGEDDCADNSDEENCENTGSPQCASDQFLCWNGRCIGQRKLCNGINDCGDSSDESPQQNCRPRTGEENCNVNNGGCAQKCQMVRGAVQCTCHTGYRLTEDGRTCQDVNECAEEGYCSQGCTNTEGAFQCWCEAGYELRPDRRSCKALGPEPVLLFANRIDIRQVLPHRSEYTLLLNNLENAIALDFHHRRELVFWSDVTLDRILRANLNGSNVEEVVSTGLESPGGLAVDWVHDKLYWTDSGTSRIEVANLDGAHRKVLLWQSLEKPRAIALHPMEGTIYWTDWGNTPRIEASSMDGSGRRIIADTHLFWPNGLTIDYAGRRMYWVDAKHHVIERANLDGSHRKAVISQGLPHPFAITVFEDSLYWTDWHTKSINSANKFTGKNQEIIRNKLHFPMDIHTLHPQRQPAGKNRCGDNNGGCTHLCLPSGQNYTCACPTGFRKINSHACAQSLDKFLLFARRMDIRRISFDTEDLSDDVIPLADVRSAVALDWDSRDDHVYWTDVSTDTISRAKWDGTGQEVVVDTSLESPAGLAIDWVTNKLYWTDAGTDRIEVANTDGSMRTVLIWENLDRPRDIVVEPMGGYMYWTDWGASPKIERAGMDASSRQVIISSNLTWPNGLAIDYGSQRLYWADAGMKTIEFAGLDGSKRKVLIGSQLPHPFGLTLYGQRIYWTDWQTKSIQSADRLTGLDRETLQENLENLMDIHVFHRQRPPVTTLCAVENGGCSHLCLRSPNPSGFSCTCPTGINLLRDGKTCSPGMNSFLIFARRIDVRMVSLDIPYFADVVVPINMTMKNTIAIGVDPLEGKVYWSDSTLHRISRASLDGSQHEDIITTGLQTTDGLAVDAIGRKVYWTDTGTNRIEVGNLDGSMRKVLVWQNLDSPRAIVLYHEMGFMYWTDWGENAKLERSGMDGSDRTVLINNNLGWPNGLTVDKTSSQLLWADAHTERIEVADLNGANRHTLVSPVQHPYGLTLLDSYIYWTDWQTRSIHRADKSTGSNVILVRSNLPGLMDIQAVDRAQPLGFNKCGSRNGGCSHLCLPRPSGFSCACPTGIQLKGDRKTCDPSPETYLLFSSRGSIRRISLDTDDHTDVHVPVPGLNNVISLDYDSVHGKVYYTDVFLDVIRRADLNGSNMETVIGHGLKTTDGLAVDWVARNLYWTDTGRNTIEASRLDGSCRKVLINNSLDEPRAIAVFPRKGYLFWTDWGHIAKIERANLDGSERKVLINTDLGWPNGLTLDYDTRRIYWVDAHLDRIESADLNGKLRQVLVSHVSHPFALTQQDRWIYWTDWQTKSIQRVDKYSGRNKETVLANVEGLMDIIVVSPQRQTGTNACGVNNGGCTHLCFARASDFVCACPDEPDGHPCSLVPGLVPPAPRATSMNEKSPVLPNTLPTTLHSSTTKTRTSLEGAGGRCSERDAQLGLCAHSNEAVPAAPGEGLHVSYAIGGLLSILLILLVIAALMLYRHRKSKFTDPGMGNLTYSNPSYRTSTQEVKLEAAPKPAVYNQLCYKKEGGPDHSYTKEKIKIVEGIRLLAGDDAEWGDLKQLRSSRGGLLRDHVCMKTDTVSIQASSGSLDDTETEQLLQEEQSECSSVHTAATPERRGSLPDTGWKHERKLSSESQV
The target in assay [2] is B1. Kind of assay: pull-down; 100 ng purified APP-Fc on Protein A-agarose beads, incubated with 100 ng purified MBP-LRP4LBD and 0-1000 ng neuronal agrin in PBS with 0.1% BSA, 4 hr, 4°C; immunoblot with anti-MBP, anti-agrin, anti-Fc. Conditions: both partners purified. (Immunoblotting shows a protein as a band on a membrane.)

For B1, the “MuSK tyrosine phosphorylation in myotubes, APP-Fc alone at 1×, 10× or 100× molar concentrations compared to 0.1 nM agrin (0.1-10 nM), 30 min at 37°C, without agrin” value in assay [1] was 4.3 fold over baseline.

B2: MBP-LRP4LBD (LRP4 ligand binding domain, aa 27-349, fused to maltose-binding protein) (domain or fragment, mouse, UniProt Q8VI56 27-349, looked up)
chain: CGRSHFTCAVSALGECTCIPAQWQCDGDNDCGDHSDEDGCTLPTCSPLDFHCDNGKCIRRSWVCDGDNDCEDDSDEQDCPPRECEEDEFPCQNGYCIRSLWHCDGDNDCGDNSDEQCDMRKCSDKEFRCSDGSCIAEHWYCDGDTDCKDGSDEESCPSAVPSPPCNLEEFQCAYGRCILDIYHCDGDDDCGDWSDESDCSSHQPCRSGEFMCDSGLCINSGWRCDGDADCDDQSDERNCTTSMCTAEQFRCRSGRCVRLSWRCDGEDDCADNSDEENCENTGSPQCASDQFLCWNGRCIGQRKLCNGINDCGDSSDESPQQNC
notes: Species is stated as mouse for the LRP4-Fc construct, not expressly for this one; Vector pMAL-p4x; also called LRP4-MBP; source: E. coli BL21, periplasmic extract, purified on amylose column; not shown: MBP, N-terminal, kept
In the case of B2, in assay [2], the “fold binding against no agrin, with 10 ng/ml agrin” value amounted to 1.3 fold and the “fold binding against no agrin, with 30 ng/ml agrin” value was found to be 3 fold.

The values above are taken from paper PMC3748711, “APP interacts with LRP4 and agrin to coordinate the development of the neuromuscular junction in mice” (eLife, 2013).
